Experimental data published in US20260055205A1 (published 2026).
Positions count from the first letter of the chain named. Blank lines part the entries; values can stand above or below the binder they belong to.

Legend:
human PSMA-Fc [1] = molecular target: T1, human PSMA-Fc (human, UniProt Q04609 44-750); assay: Octet
T1 construct: also called Human PSMA-Fc fusion

human PSMA-Fc [2] = molecular target: T1, human PSMA-Fc; assay: Octet; remark: listed apart in the source
human PSMA-Fc [3] = molecular target: T1, human PSMA-Fc; assay: Octet, PSMA-Fc
Protocol: Binding affinity of select PSMA PTE variants was tested by Octet.

[4] = molecular target: T2, cyno PSMA on PSMA-transfected CHO cells (cynomolgus monkey, UniProt A0A2K5VNZ0 1-750); assay: cell binding, labeled secondary antibody
T2 construct: whole, on cells; also called Cyno PSMA CHO
Protocol: (§1) Surface binding was detected with a labeled secondary antibody specific for the anti-CD3 scFv.
(§2) The binding affinities to both human and cyno PSMA and human and cyno CD3 epsilon were determined.

[5] = molecular target: T3, human PSMA on PSMA-transfected CHO cells (human, UniProt Q04609 1-750); assay: cell binding, labeled secondary antibody
T3 construct: whole, on cells; also called Hu PSMA CHO
T3 sequence (Q04609 whole entry): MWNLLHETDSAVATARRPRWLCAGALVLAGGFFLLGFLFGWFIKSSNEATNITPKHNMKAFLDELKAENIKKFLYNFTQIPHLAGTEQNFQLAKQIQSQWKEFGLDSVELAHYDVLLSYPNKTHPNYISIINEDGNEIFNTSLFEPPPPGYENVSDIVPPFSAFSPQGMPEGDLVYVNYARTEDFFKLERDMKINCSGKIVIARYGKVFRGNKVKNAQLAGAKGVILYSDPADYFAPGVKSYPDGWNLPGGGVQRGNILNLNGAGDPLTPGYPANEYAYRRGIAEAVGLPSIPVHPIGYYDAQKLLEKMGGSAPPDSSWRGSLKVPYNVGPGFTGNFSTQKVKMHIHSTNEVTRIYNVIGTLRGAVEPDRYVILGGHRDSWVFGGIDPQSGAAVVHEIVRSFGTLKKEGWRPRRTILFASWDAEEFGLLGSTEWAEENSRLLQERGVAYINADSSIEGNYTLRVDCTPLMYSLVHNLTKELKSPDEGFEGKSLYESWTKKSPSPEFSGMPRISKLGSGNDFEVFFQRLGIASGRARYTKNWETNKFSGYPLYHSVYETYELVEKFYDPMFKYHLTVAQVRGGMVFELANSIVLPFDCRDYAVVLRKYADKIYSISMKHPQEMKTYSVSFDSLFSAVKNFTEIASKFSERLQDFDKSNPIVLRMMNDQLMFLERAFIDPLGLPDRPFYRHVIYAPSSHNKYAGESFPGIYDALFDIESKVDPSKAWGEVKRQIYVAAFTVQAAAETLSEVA
Protocol: as §1, §2

[6] = molecular target: T4, cynomolgus monkey CD3 epsilon (cynomolgus monkey, UniProt Q95LI5 22-117, limits assumed); assay: Octet
T4 construct: also called cyCD3e; cyno CD3
T4 sequence (looked up): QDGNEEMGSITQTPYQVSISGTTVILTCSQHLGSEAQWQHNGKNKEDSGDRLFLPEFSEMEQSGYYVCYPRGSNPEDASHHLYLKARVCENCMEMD

human CD3 epsilon [7] = molecular target: T5, human CD3 epsilon (human, UniProt P07766 23-126, limits assumed); assay: Octet
T5 construct: also called huCD3e
T5 sequence (P07766 23-126 limits assumed): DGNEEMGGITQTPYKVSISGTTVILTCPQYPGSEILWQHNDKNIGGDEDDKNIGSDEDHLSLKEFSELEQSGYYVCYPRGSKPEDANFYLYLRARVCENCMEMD

cynomolgus monkey PSMA [8] = molecular target: T6, cynomolgus monkey PSMA (cynomolgus monkey, UniProt A0A2K5VNZ0 44-750); assay: Octet
T6 construct: also called cyPSMA; cyno PSMA

human PSMA [9] = molecular target: T7, human PSMA (human, UniProt Q04609 44-750, limits assumed); assay: Octet
T7 construct: also called huPSMA; hPSMA
T7 sequence (Q04609 44-750 limits assumed): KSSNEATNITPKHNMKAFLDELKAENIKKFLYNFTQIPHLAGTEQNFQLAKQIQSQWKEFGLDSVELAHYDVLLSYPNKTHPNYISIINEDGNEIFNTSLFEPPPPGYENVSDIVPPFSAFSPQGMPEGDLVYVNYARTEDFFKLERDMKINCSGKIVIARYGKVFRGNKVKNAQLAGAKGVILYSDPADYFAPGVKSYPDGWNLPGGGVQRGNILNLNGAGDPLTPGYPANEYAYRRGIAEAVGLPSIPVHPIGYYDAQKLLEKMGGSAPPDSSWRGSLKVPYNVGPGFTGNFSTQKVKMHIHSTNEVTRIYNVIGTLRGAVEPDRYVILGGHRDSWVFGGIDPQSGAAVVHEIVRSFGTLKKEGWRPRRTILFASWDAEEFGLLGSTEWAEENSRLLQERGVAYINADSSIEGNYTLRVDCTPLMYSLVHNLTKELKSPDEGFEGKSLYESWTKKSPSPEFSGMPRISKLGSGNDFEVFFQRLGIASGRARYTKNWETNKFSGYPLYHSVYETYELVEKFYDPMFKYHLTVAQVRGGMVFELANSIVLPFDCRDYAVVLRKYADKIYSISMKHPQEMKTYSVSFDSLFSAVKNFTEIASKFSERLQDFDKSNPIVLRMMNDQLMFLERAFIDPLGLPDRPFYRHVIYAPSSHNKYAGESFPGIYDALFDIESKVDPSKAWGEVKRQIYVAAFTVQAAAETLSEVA

human PSMA [10] = molecular target: T7, human PSMA; assay: relative binding to PSMA, uTCE
human PSMA [11] = molecular target: T7, human PSMA; assay: binding kinetics, uTCE
cynomolgus monkey PSMA [12] = molecular target: T6, cynomolgus monkey PSMA; assay: Biacore
human PSMA [13] = molecular target: T7, human PSMA; assay: Biacore
PSMA on 22Rv1 cells = PSMA on 22Rv1 cells (human, UniProt Q04609 1-750); assay: cell-based or functional assay
Chain of PSMA on 22Rv1 cells (Q04609 whole entry): as the sequence (Q04609 whole entry) above

cynomolgus monkey PSMA [14] = molecular target: T6, cynomolgus monkey PSMA; assay: BLI or SPR
human PSMA [15] = molecular target: T7, human PSMA; assay: BLI or SPR
[16] = molecular target: T4, cynomolgus monkey CD3 epsilon; assay: BLI or SPR
human CD3 epsilon [17] = molecular target: T5, human CD3 epsilon; assay: BLI or SPR
[18] = molecular target: T4, cynomolgus monkey CD3 epsilon; assay: Biacore
human CD3 epsilon [19] = molecular target: T5, human CD3 epsilon; assay: Biacore
PSMA on LNCaP cells = PSMA on LNCaP cells (human, UniProt Q04609 1-750); assay: cell-based or functional assay
Chain of PSMA on LNCaP cells (Q04609 whole entry): as above

T1 sequence (Q04609 44-750 limits assumed): as the sequence (Q04609 44-750 limits assumed) above

B3: uTCE of AC2755 (bispecific antibody, V domains shown)
VH: QVQLVESGGGVVQPGRSLRLSCAASGRTFDVYAMGWVRQAPGKERELVAAINWSGSNKFHADSVKGRFTISRDNSKNTLYLQMNSLKTEDTAMYFCAASTRLYGTTWYEFNDSDYWGQGTQVTVSS
notes: TCE with CD3.23; also called VHH41
- binding result (human PSMA [10]): binds

B4: uTCE of AC2750 (bispecific antibody, V domains shown)
VH: B3 VH with V37F, E44G, K87R, T88P, M93V
notes: TCE with CD3.23; also called VHH36
- binding result (human PSMA [10]): binds

B6: uTCE from AC3445 (bispecific antibody)
chain: QVQLVESGGGVVQPGRSLRLSCAASGRTFGIYVMGWVRQAPGKEREFVAAISWSGSNRKVSDSVKGRFTISRDNSKNTLYLQMNSLRAEDTAVYYCAASNRLYGRTWYDFNESDYWGQGTQVTVSSGGGGSGGGSELVVTQEPSLTVSPGGTVTLTCRSSNGAVTSSNYANWVQQKPGQAPRGLIGGTNKRAPGTPARFSGSLLGGKAALTLSGVQPEDEAVYYCALWYPNLWVFGGGTKLTVLSESATPESGPGTSPGATPESGPGTSESATPEVQLLESGGGIVQPGGSLKLSCAASGFTFNTYAMNWVRQAPGKGLEWVARIRSKYNNYATYYADSVKDRFTISRDDSKNTVYLQMNNLKTEDTAVYYCVRHENFGNSYVSWFAHWGQGTLVTVSS
notes: also called PSMA.119-CD3.23
- Kd [6]: 40 nM
- Kd (human CD3 epsilon [7]): 34.8 nM
- Kd (cynomolgus monkey PSMA [8]): 47.5 nM
- Kd (human PSMA [9]): 6.2 nM

B8: AMX-500(uTCE) (bispecific antibody)
chain: QVQLVESGGGVVQPGRSLRLSCAASGRTFGIYVWGWFRQAPGKEREFVGAMSWSGSNRKVSDSVKGRFTISRDNSKNTLYLQMNSLRAEDTAVYYCAASNKEYGRTWYDFNESDYWGQGTQVTVSSGGGGSGGGSELVVTQEPSLTVSPGGTVTLTCRSSNGAVTSSNYANWVQQKPGQAPRGLIGGTNKRAPGTPARFSGSLLGGKAALTLSGVQPEDEAVYYCALWYPNLWVFGGGTKLTVLSESATPESGPGTSPGATPESGPGTSESATPEVQLVESGGGIVQPGGSLRLSCAASGFTFSTYAMNWVRQAPGKGLEWVGRIRTKRNNYATYYADSVKGRFTISRDDSKNTVYLQMNSLKTEDTAVYYCVRHENFGNSYVSWFAHWGQGTLVTVSS
notes: also called uTCE from AC3896; AMX-500-P4 uTCE
- Kd (cynomolgus monkey PSMA [12]): 230 nM
- Kd (human PSMA [13]): 11.7 nM
- in vitro cytotoxicity IC50, 22Rv1 cells, donor 1 (PSMA on 22Rv1 cells): 0.691 nM
- in vitro cytotoxicity IC50, 22Rv1 cells, donor 2 (PSMA on 22Rv1 cells): 1.34 nM
- in vitro cytotoxicity IC50, 22Rv1 cells, donor 3 (PSMA on 22Rv1 cells): 1.3 nM
- Kd (cynomolgus monkey PSMA [14]): 410 nM
- koff (cynomolgus monkey PSMA [14]): 0.043 s⁻¹
- kon (cynomolgus monkey PSMA [14]): 100000 M⁻¹ s⁻¹
- Kd (human PSMA [15]): 44 nM
- koff (human PSMA [15]): 0.012 s⁻¹
- kon (human PSMA [15]): 270000 M⁻¹ s⁻¹
- Kd [16]: 26 nM
- koff [16]: 0.1 s⁻¹
- kon [16]: 5e+06 M⁻¹ s⁻¹
- Kd (human CD3 epsilon [17]): 28 nM
- koff (human CD3 epsilon [17]): 0.1 s⁻¹
- kon (human CD3 epsilon [17]): 4e+06 M⁻¹ s⁻¹
- Kd [18]: 13.7 nM
- Kd (human CD3 epsilon [19]): 12.8 nM
- EC50 [5]: 17.4 nM
- in vitro cytotoxicity IC50, LNCaP cells, donor 1 (PSMA on LNCaP cells): 0.024 nM
- in vitro cytotoxicity IC50, LNCaP cells, donor 2 (PSMA on LNCaP cells): 0.015 nM
- in vitro cytotoxicity IC50, LNCaP cells, donor 3 (PSMA on LNCaP cells): 0.016 nM
- in vitro cytotoxicity IC50, LNCaP cells, donor 5 (PSMA on LNCaP cells): 0.032 nM
- Kd [6]: 38.8 nM
- Kd (human CD3 epsilon [7]): 33.2 nM
- Kd (cynomolgus monkey PSMA [8]): 201 nM
- Kd (human PSMA [9]): 12.1 nM

B9: uTCE from AC3928 (bispecific antibody)
chain: B6 chain with M34W, V37F, A49G, I51M, R101K, L102E
notes: also called AMX500-P6 uTCE; PSMA.350-CD3.23
- Kd (cynomolgus monkey PSMA [12]): 354 nM
- Kd (human PSMA [13]): 19 nM
- Kd [18]: 26.6 nM
- Kd (human CD3 epsilon [19]): 27.3 nM
- Kd [6]: 44.9 nM
- Kd (human CD3 epsilon [7]): 43 nM
- Kd (cynomolgus monkey PSMA [8]): 198 nM
- Kd (human PSMA [9]): 13.2 nM

Further lines, results first:

- Kd (human PSMA-Fc [1]): 3.9 nM
- Kd (human PSMA-Fc [2]): 3.9 nM
- koff (human PSMA-Fc [2]): 0.00027 s⁻¹
- kon (human PSMA-Fc [2]): 72000 M⁻¹ s⁻¹
- Kd (human PSMA-Fc [3]): 3.9 nM
- koff (human PSMA-Fc [3]): 0.000273 s⁻¹
- kon (human PSMA-Fc [3]): 72500 M⁻¹ s⁻¹
- EC50 [4]: 28.8 nM
- EC50 [5]: 9.06 nM
- Kd [6]: 64.6 nM
- Kd (human CD3 epsilon [7]): 71.9 nM
- Kd (cynomolgus monkey PSMA [8]): 41.1 nM
- Kd (human PSMA [9]): 4.5 nM
B1: uTCE of AC3092 (bispecific antibody)
chain: QVQLVESGGGVVQPGRSLRLSCAASGRTFGIYVMGWVRQAPGKEREFVAAISWSGSNRLVSDSVKGRFTISRDNSKNTLYLQMNSLRAEDTAVYYCAASNRLYGRTWYDFNESDYWGQGTQVTVSSGGGGSGGGSELVVTQEPSLTVSPGGTVTLTCRSSNGAVTSSNYANWVQQKPGQAPRGLIGGTNKRAPGTPARFSGSLLGGKAALTLSGVQPEDEAVYYCALWYPNLWVFGGGTKLTVLGATPPETGAETESPGETTGGSAESEPPGEGEVQLLESGGGIVQPGGSLKLSCAASGFTFNTYAMNWVRQAPGKGLEWVARIRSKYNNYATYYADSVKDRFTISRDDSKNTVYLQMNNLKTEDTAVYYCVRHENFGNSYVSWFAHWGQGTLVTVSS
notes: also called AMX-500-P1; PSMA.5-CD3.23

- Kd (human PSMA-Fc [1]): 2.1 nM
- Kd (human PSMA-Fc [2]): 2.1 nM
- koff (human PSMA-Fc [2]): 0.00022 s⁻¹
- kon (human PSMA-Fc [2]): 110000 M⁻¹ s⁻¹
B2: uTCE of AC3353 (bispecific antibody)
chain: QVQLVESGGGVVQPGRSLRLSCAASGRTFGIYVMGWVRQAPGKEREFVAAISWSGSNRLVSDSVKGRFTISRDNSKNTLYLQMNSLRAEDTAVYYCAASNRLYGRTWYDFNESDYWGQGTQVTVSSGGGGSELVVTQEPSLTVSPGGTVTLTCRSSNGAVTSSNYANWVQQKPGQAPRGLIGGTNKRAPGTPARFSGSLLGGKAALTLSGVQPEDEAVYYCALWYPNLWVFGGGTKLTVLGATPPETGAETESPGETTGGSAESEPPGEGEVQLLESGGGIVQPGGSLKLSCAASGFTFNTYAMNWVRQAPGKGLEWVARIRSKYNNYATYYADSVKDRFTISRDDSKNTVYLQMNNLKTEDTAVYYCVRHENFGNSYVSWFAHWGQGTLVTVSS
notes: also called PSMA.5 (5 mer)

- Kd (human PSMA-Fc [1]): 3.5 nM
- Kd (human PSMA-Fc [2]): 3.5 nM
- koff (human PSMA-Fc [2]): 0.00027 s⁻¹
- kon (human PSMA-Fc [2]): 77000 M⁻¹ s⁻¹
B5: uTCE of AC3354 (bispecific antibody)
chain: QVQLVESGGGVVQPGRSLRLSCAASGRTFGIYVMGWVRQAPGKEREFVAAISWSGSNRLVSDSVKGRFTISRDNSKNTLYLQMNSLRAEDTAVYYCAASNRLYGRTWYDFNESDYWGQGTQVTVSSGATPPETGAETESPGELVVTQEPSLTVSPGGTVTLTCRSSNGAVTSSNYANWVQQKPGQAPRGLIGGTNKRAPGTPARFSGSLLGGKAALTLSGVQPEDEAVYYCALWYPNLWVFGGGTKLTVLGATPPETGAETESPGETTGGSAESEPPGEGEVQLLESGGGIVQPGGSLKLSCAASGFTFNTYAMNWVRQAPGKGLEWVARIRSKYNNYATYYADSVKDRFTISRDDSKNTVYLQMNNLKTEDTAVYYCVRHENFGNSYVSWFAHWGQGTLVTVSS
notes: also called PSMA.5 (15 mer)

- Kd (human PSMA-Fc [1]): 1 nM
- Kd (human PSMA [11]): 0.79 nM
- koff (human PSMA [11]): 8.7e-05 s⁻¹
- kon (human PSMA [11]): 110000 M⁻¹ s⁻¹
- Kd (human PSMA-Fc [2]): 1 nM
- koff (human PSMA-Fc [2]): 0.00012 s⁻¹
- kon (human PSMA-Fc [2]): 120000 M⁻¹ s⁻¹
- Kd (human PSMA-Fc [3]): 1 nM
- koff (human PSMA-Fc [3]): 0.000122 s⁻¹
- kon (human PSMA-Fc [3]): 125000 M⁻¹ s⁻¹
B7: uTCE of AC2591 (PSMA-VHH; CB01H01R3, CD3.23) (bispecific antibody)
chain: LTGPATSGSETPGTEVQLVESGGGSVQAGGSLSLSCVASGRTFGIYVMGWFRQAPGKEREFVAAISWSGSNRLVSDSVKGRFTISRENAKNTIYLQMNGLKPEDTANYFCAASNRLYGRTWYDFNESDYWGQGTQVTVSSGGGGSGGGSELVVTQEPSLTVSPGGTVTLTCRSSNGAVTSSNYANWVQQKPGQAPRGLIGGTNKRAPGTPARFSGSLLGGKAALTLSGVQPEDEAVYYCALWYPNLWVFGGGTKLTVLGATPPETGAETESPGETTGGSAESEPPGEGEVQLLESGGGIVQPGGSLKLSCAASGFTFNTYAMNWVRQAPGKGLEWVARIRSKYNNYATYYADSVKDRFTISRDDSKNTVYLQMNNLKTEDTAVYYCVRHENFGNSYVSWFAHWGQGTLVTVSSGTAEAASASGEAGRSANHTPAG
notes: also called PSMA.2

- Kd (cynomolgus monkey PSMA [12]): 13 nM
- Kd (human PSMA [13]): 0.5 nM
- Kd [18]: 10.4 nM
- Kd (human CD3 epsilon [19]): 9.83 nM
- Kd [6]: 33.7 nM
- Kd (human CD3 epsilon [7]): 26.6 nM
- Kd (cynomolgus monkey PSMA [8]): 13.1 nM
- Kd (human PSMA [9]): 1.6 nM
B10: uTCE from AC3934 (bispecific antibody)
chain: B8 chain with F37V, M51I, E102L
notes: also called AMX500-P7 uTCE; PSMA.262-CD3.228
